Experimental data taken from patent US20230038638A1, “COMPLEMENT FACTOR I-RELATED COMPOSITIONS AND METHODS” (published 2023).

Assays:
human C4b (human) = target: T1, human C4b (human) (UniProt P0C0L4)
T1 sequence: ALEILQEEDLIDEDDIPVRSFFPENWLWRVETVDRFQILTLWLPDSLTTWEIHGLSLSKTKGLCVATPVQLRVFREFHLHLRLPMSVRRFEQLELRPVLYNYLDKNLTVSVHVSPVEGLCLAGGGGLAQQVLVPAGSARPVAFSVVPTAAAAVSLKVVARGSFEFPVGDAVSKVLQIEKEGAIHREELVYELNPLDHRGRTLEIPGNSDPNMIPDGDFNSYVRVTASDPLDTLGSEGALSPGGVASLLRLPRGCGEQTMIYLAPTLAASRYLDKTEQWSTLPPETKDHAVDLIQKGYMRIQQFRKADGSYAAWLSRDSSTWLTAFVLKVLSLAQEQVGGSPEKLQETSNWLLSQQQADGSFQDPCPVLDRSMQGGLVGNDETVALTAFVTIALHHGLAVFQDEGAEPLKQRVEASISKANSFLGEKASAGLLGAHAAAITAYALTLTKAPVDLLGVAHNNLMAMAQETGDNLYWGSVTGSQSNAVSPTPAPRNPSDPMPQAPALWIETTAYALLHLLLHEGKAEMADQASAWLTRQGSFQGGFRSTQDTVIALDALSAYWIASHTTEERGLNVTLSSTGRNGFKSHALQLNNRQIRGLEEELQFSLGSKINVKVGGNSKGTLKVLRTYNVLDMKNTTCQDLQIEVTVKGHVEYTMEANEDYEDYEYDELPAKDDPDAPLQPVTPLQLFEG

[1] = target: soluble human C3b (human) (UniProt P01024)

| Substance | C4b Screen Ref Fold (fold of CFI-HSA wild type) (human C4b (human)) | iC3b Screen Ref Fold (fold of CFI-HSA wild type) [1] |
| --- | --- | --- |
| CFI-HSA N531G; R462K; F464Y (enzyme) | 6.27 | 0.78 |
| CFI-HSA P535D (enzyme) | 0.14 | 0.01 |
| CFI-HSA P535E (enzyme) | 0.45 | 0.24 |
| CFI-HSA P535F (enzyme) | 0.19 | 0.3 |
| CFI-HSA P535H (enzyme) | 0.22 | 0.42 |
| CFI-HSA P535I (enzyme) | 0.62 | 0.65 |
| CFI-HSA P535L (enzyme) | 0.27 | 0.53 |
| CFI-HSA P535M (enzyme) | 0.68 | 0.6 |
| CFI-HSA P535N (enzyme) | 0.33 | 0.08 |
| CFI-HSA P535Q (enzyme) | 1.24 | 0.37 |
| CFI-HSA P535R (enzyme) | 1.24 | 0.77 |
| CFI-HSA P535S (enzyme) | 2.14 | 0.58 |
| CFI-HSA P535T (enzyme) | 0.4 | 0.17 |
| CFI-HSA P535V (enzyme) | 1.29 | 0.57 |
| CFI-HSA P535W (enzyme) | 0.14 | 0.29 |
| CFI-HSA R462K; F464Y (enzyme) | 0.83 | 0.11 |
| CFI-HSA S507A; GGSSGG (SEQ ID NO: 6); CCP_1-4 (enzyme) | 0.43 | 0 |
| CFI-HSA T346K; Y408L; K504D; E530K; N531G (enzyme) | 0.04 | 0.29 |
| CFI-HSA T346K; Y408L; N531G (enzyme) | 4.81 | 1.1 |
| CFI-HSA T346R; Y408L; K504E; E530R; N531G (enzyme) | 0.1 | 0.67 |
| CFI-HSA T407G (enzyme) | 0.11 | 0.59 |
| CFI-HSA T407G; E457G (enzyme) | 0.42 | 0.89 |
| CFI-HSA T407G; N531G (enzyme) | 0.83 | 0.85 |

| Substance | C4b Screen Ref Fold (fold of CFI-HSA wild type) (human C4b (human)) | iC3b Screen Ref Fold (fold of CFI-HSA wild type) [1] |
| --- | --- | --- |
| CFI-HSA T407G; Y408L; E457G (enzyme) | 0.12 | 0.74 |
| CFI-HSA T407G; Y408L; E457G; N531G (enzyme) | 0.67 | 0.56 |
| CFI-HSA T407G; Y408L; N531G (enzyme) | 0.46 | 1.43 |
| CFI-HSA Y408L; E457G; E461Q (enzyme) | 6.36 | 1.18 |
| CFI-HSA Y408L; E457G; E461Q; F464Y (enzyme) | 5.88 | 1.45 |
| CFI-HSA Y408L; E457G; F464Y (enzyme) | 5.57 | 1.13 |
| CFI-HSA Y408L; E457G; R462K (enzyme) | 5.24 | 1.02 |
| CFI-HSA Y408L; E457G; R462K; F464Y (enzyme) | 5.5 | 0.89 |
| CFI-HSA Y408L; E457G; S507A; N531G (enzyme) | 0.12 | -0.01 |
| CFI-HSA Y408L; E461Q (enzyme) | 4.44 | 1.03 |
| CFI-HSA Y408L; E461Q; F464Y (enzyme) | 4.83 | 1.51 |
| CFI-HSA Y408L; E461Q; R462K (enzyme) | 2.53 | 1.33 |
| CFI-HSA Y408L; E461Q; R462K; F464Y (enzyme) | 2.43 | 0.74 |
| CFI-HSA Y408L; E530K; N531G (enzyme) | 4.89 | 1.12 |
| CFI-HSA Y408L; E530R; N531G (enzyme) | 4.67 | 1.09 |
| CFI-HSA Y408L; F464Y (enzyme) | 0.67 | 0.55 |
| CFI-HSA Y408L; N531G (enzyme) | 6.44 | 1.29 |
| CFI-HSA Y408L; N531G; E457G; E461Q; R462K; F464Y; S507A (enzyme) | 0.04 | -0.01 |
| CFI-HSA Y408L; N531G; E457G; F464Y (enzyme) | 6.45 | 0.84 |
| CFI-HSA Y408L; N531G; E457G; R462K (enzyme) | 6.12 | 1.29 |
| CFI-HSA Y408L; N531G; E461Q; F464Y (enzyme) | 5.6 | 1.29 |
| CFI-HSA Y408L; N531G; E461Q; R462K (enzyme) | 6.79 | 1.24 |
